Where “and” joins values, the source holds several entries; their conditions need not be identical. Identical values can stand only once.
B1: hHsp90 CTD cold spot mutant CTD^S658A/Q682A (domain or fragment)
chain: not shown
notes: human Hsp90 alpha isoform (UniProt P07900), C-terminal domain, residues 563-732, with S658A and Q682A; Same construct as m1 (pTEV21-a), made by site-directed mutagenesis; also called S658A/Q682A cold spot mutant
B2: hHsp90 CTD hot spot mutant II CTD^I688A/Y689A/I692A (domain or fragment)
chain: not shown
notes: human Hsp90 alpha isoform (UniProt P07900), C-terminal domain, residues 563-732, with I688A, Y689A and I692A; Same construct as m1 (pTEV21-a), made by site-directed mutagenesis
B3: hHsp90 CTD hot spot mutant I CTD^Y689A/I692A/L696A (domain or fragment)
chain: not shown
notes: human Hsp90 alpha isoform (UniProt P07900), C-terminal domain, residues 563-732, with Y689A, I692A and L696A; Same construct as m1 (pTEV21-a), made by site-directed mutagenesis
B4: C-terminal domain (CTD) of human heat shock protein of 90 kDa (hHsp90), wild type (domain or fragment)
chain: not shown
notes: human Hsp90 alpha isoform (UniProt P07900), C-terminal domain, residues 563-732; synthetic codon-optimized DNA; Vector pTEV21-a; also called CTD wt; wt

Legend:
[1] = biological target: the molecule itself; assay: SEC; Superdex SD200 10/300, 4°C, HPLC buffer (10 mM MES/KOH, 200 mM KCl, 1 mM EDTA, 1% glycerol) pH 6, 110 µL purified CTD, triplicates; apparent stoichiometry from calibration with globular protein standards
[2] = biological target: the molecule itself; assay: SEC-MALS; Bio SEC-5 150 Å column, HPLC buffer without glycerol (10 mM MES, 200 mM KCl, 1 mM EDTA, pH 6), samples 2.4 mg/ml; dimer to monomers
[3] = biological target: the molecule itself; assay: as above; remark: listed apart in the source

Row | Protein | binding result [1] | stoichiometry N [2] | stoichiometry N [1] | fraction of species 1 (monomer mass) [3] | fraction of species 2 (dimer mass) [3]
1 | B1 | binds |  |  |  | 
2 | B2 |  | 2 | 4 | 0.69 | 0.31
3 | B3 |  | 2 | 4 | 0.77 | 0.23
4 | B4 |  | 2 | 4 and 8 | 0 | 1
